Assay [1] deals with T1, human CCL20-secreted alkaline phosphatase (SEAP) fusion (human, UniProt P78556 27-96).
T1 construct: also called hCCL20; human CCL20-SEAP; not shown: secreted alkaline phosphatase (SEAP), cDNA from pSEAP-Enhancer vector (Clontech)
The assay is described as follows: ELISA, serially diluted CCL20-SEAP captured by anti-alkaline phosphatase antibody, antibody at 1 µg/ml; human CCL20-SEAP. The procedure: (§1) To test whether the chimeric and humanized antibodies can bind to mouse, cynomolgus, or rhesus macaque CCL20 orthologs, we used ELISA assays as illustrated in FIG. 15. Recombinant secreted alkaline phosphatase (SEAP)-chemokine fusion proteins were engineered as described in Example 2, expressed and purified for all of the CCL20 orthologs tested. Nunc MaxiSorb flat-bottom black plates were coated with 1 μg/ml mouse anti-placental alkaline phosphatase antibody (Pierce, cat# MA1-19354) in 50 mM sodium bicarbonate, pH 9.4, overnight at 4° C. Plates were then blocked using 1× phosphate buffered saline with Tween-20 (PBST) with 5% bovine serum albumin (BSA) for 2 hours at room temperature. 20 nM SEAP-CCL20 fusion proteins were serially diluted 5-fold in Opti-MEM medium (Invitrogen). Chimeric and humanized (HC2/LC3 and HC2/LK3) antibodies were diluted to 1 μg/ml in 1×PBST with 5% BSA, added to the plates, and incubated for 1 hr at room temperature. The plates were then washed with 1×PBST with 5% BSA three times. […] QuantaBlu fluorescent HRP substrate (Pierce cat#15169) was added for detection of bound antibody by measuring fluorescence in a Molecular Devices M5 (Excitation 325 nm/Emission 420 nm) plate reader. […]
A general note: In an ELISA, binding on a coated surface is turned into a signal by an enzyme label.

Assay [2] has as its target T2, cynomolgus CCL20-secreted alkaline phosphatase (SEAP) fusion (cynomolgus monkey).
T2 construct: also called cCCL20; cynomolgus CCL20-SEAP; not shown: the SEAP reporter (cDNA from Clontech pSEAP-Enhancer) and its junction to CCL20
T2 chain: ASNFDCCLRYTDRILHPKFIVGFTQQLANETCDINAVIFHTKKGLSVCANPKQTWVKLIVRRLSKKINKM
The assay can be described thus: ELISA, serially diluted CCL20-SEAP captured by anti-alkaline phosphatase antibody, antibody at 1 µg/ml. As to the method: as §1

Assay [3] addresses T3, rhesus CCL20-secreted alkaline phosphatase (SEAP) fusion (rhesus monkey).
T3 construct: also called rCCL20; rhesus CCL20-SEAP; not shown: the SEAP reporter (cDNA from Clontech pSEAP-Enhancer) and its junction to CCL20
T3 chain: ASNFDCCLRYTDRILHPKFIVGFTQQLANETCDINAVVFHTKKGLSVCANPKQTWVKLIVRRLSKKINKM
The assay is described as follows: ELISA, serially diluted CCL20-SEAP captured by anti-alkaline phosphatase antibody, antibody at 1 µg/ml; rhesus CCL20-SEAP. As to the method: as §1

The target of assay [4] is T1, human CCL20-secreted alkaline …. The assay can be described thus: ELISA (fluorescent HRP substrate): CCL20-SEAP captured on anti-alkaline phosphatase in 5-fold dilutions from 20 nM (x axis, nM), antibody at 1 ug/ml; the text rounds this number to 62 pM. The procedure:
as §1

Assay [5] has as its target T4, recombinant human CXCL4 (human, UniProt P02776 32-101).
T4 construct: also called PF4
T4 sequence (looked up): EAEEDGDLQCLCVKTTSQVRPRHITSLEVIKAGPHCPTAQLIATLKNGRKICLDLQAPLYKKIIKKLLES
The assay can be described thus: ELISA, plate-bound chemokine (1 ug/ml), antibody 10 ug/ml, OD450. In outline:
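Wells coated overnight at 4 °C with 1 μg/ml recombinant human chemokine in PBS, blocked 1 h, then incubated 1 h at room temperature with antibodies at 10 μg/ml in 0.02% Tween 20/PBS. TMB development 15–30 min, stopped with 2 M H2SO4, OD read at 450 nm.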

The target of assay [6] is T5, mouse CCL20-secreted alkaline phosphatase (SEAP) fusion (mouse, UniProt O89093 28-97).
T5 construct: Expressed in HEK293E, used as culture supernatant; also called SEAP-tagged mouse CCL20; mCCL20; not shown: secreted alkaline phosphatase (SEAP), cDNA from pSEAP-Enhancer vector (Clontech)
T5 sequence: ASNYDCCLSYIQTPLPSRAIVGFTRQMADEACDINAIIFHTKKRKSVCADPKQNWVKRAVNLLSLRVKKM
The assay can be described thus: ELISA on CCL20-SEAP, Abs 450; x axis 'ug/ml' in 4-fold steps down from 10, taken as the antibody concentration as in FIG. 11C.

Assay [7] deals with T4, recombinant human CXCL4. The assay can be described thus: SPR (Biacore): antibody captured on the sensor chip, free chemokine injected; concentration not shown. In general terms: SPR reads the build-up and loss of mass on a sensor chip optically.

The term EC50 denotes the concentration giving half of the maximal effect. Read a low EC50 as higher potency in that assay.

T1 sequence (P78556 27-96): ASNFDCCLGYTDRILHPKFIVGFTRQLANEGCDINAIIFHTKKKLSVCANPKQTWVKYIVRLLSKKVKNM

B1: humanized anti-human CCL20 antibody 36LC3/36HC2 (antibody, human IgG1, kappa, V domains shown)
VH: QVQLVQSGAEVKKPGASVKVSCKASGYTFTNYWMHWVRQAPGQGLEWMGVIDPSDSYTTYAQKFQGRVTMTVDTSTSTVYMELSSLRSEDTAVYYCARGNYGVDYAMDYWGQGTLVTVSS
VL: DIQMTQSPSSLSASVGDRVTITCRASENIYGALNWYQQKPGKAPKLLIYGATNLADGVPSRFSGSGSGRQYSLTISSLQPEDFATYYCQNVLITPYTFGGGTKLEIKR
notes: expressed in HEK293 cells; also called HC2/LC3; HC2LC3
Regarding B1, the values for the EC50 in assay [1], in assay [3] and in assay [4] were 62 pM, 101 pM and 61.9 pM, respectively. For the same molecule, the “fold difference of EC50 versus human CCL20” value in assay [2] came out at 5.4 fold.

B2: mouse anti-human CCL20 monoclonal antibody 36F7C10 (antibody, V domains shown)
VH: QVQLQQPGAELVKPGASVKMSCKASGYTFTNYWMHWVKQRPGQGLEWIGVIDPSDSYTTYNQKFKGKATLTVDTSSSTAYMQLSSLTSEDSAVYYCTRGNYGVDYAMDYWGQGTSVTVSS
VL: DIQMTQSPASLSASVGETVTITCGASENIYGALNWYQRKQGKSPQLLIYGATNLADGMSSRFSGSGSGRQYSLKISSLHPDDVATYYCQNVLITPYTFGGGTKLEIK
notes: Mouse hybridoma antibody; also called MouseMAb; parental mouse clone 36F7C10
In the case of B2, the binding result (with recombinant human CXCL4 [5]; in assay [6]) was “no binding (tested: 10 ug/ml)” throughout.

B3: chimeric 36F7C10 antibody (36F7C10-hFc) (antibody, V domains shown)
VH: QVQLQQPGAELVKPGASVKMSCKASGYTFTNYWMHWVKQRPGQGLEWIGVIDPSDSYTTYNQKFKGKATLTVDTSSSTAYMQLSSLTSEDSAVYYCTRGNYGVDYAMDYWGQGTSVTVSS
VL: DIQMTQSPASLSASVGETVTITCGASENIYGALNWYQRKQGKSPQLLIYGATNLADGMSSRFSGSGSGRQYSLKISSLHPDDVATYYCQNVLITPYTFGGGTKLEIK
notes: also called chimeric 36F710; Chimeric MAb
Turning to B3, the binding result with recombinant human CXCL4 [7] was “no binding”.

The values are drawn from patent US20160046707A1 (EISAI R AND D MANAGEMENT, published 2016).
